Test results published in the supplement of paper PMC9170038.

Assays:
[1] = tested on: K4 kissing-loop RNA reporter; assay: apparent KD of K4 kissing-loop reporter; higher = weaker reporter binding; settings: Eterna round: R107;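 further: bound reporter read as fluorescence of individual clusters on recovered sequencing chips by microscopy, with normalized cluster intensities fitted with a binding model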
Experimental: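 RNA-MaP round R107: designed RNA switches with theophylline, tryptophan, arginine or FMN aptamers are transcribed on-chip within common flanks. They are titrated with a labelled K4 kissing-loop RNA reporter in RNA-MaP buffer (100 mM Tris pH 7.5, 80 mM KCl, 4 mM MgCl2), without ligand or with the indicated ligand. Median apparent KD per design.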

MS2 coat protein = assay: apparent KD of MS2 coat protein; designed switch direction (-1 OFF switch, 1 ON switch): -1; higher = weaker reporter binding
Procedure, shortened: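 Three titration conditions were used: no input, 200 uM small-molecule ligand, and an oligonucleotide input. In each, SNAP-549-labelled MS2 coat protein was raised from 0.7 or 1.5 nM, doubling, to 3 µM over designed RNA switches transcribed on Illumina chips by stalled E. coli RNA polymerase. Curve fits of normalised cluster fluorescence gave values whose per-design median over clusters is the apparent KD.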

[2] = input ligand: theophylline 20 uM
[3] = input ligand: tryptophan 2.4 mM
[4] = Eterna round: R95, input ligand: FMN 200 uM
[5] = Eterna round: R95, input ligand: microRNA oligo, concentration not stated
[6] = Eterna round: R95, input ligand: none
[7] = input ligand: microRNA oligo, concentration not stated

Row | Sequence | apparent KD of MS2 coat protein (MS2 coat protein; [5]) [nM] | apparent KD of MS2 coat protein (MS2 coat protein; input ligand: FMN 200 uM) [nM] | apparent KD of MS2 coat protein (MS2 coat protein; [7]) [nM] | apparent KD of MS2 coat protein (MS2 coat protein; input ligand: none) [nM] | other results
1 | UGGAGUUGACGAAAAGUCAACUCCUGGGAAGGAGCGGACGAAAGUCCAGGUAGGUCGCUCACUACCAGUGAUGUUGGUACUAAAA | – | – | – | – | apparent KD of K4 kissing-loop reporter ([1]; input ligand: FMN 200 uM): 144 nM; apparent KD of K4 kissing-loop reporter ([1]; input ligand: arginine 13.2 mM): 351 nM; apparent KD of K4 kissing-loop reporter ([1]; input ligand: none): 296 nM; apparent KD of K4 kissing-loop reporter [1, 2]: 200 nM; apparent KD of K4 kissing-loop reporter [1, 3]: 215 nM
2 | GUGAAUGGCUGAGCAGCCGUGGUACGAGAUACCAGUGAUUUCGAUCACCCUUGGCAGCUCGGCGUGAGUGAUGUUCACGCUACAC [Theo A SS t12a] | – | – | – | – | apparent KD of K4 kissing-loop reporter ([1]; input ligand: FMN 200 uM): 273 nM; apparent KD of K4 kissing-loop reporter ([1]; input ligand: arginine 13.2 mM): 278 nM; apparent KD of K4 kissing-loop reporter ([1]; input ligand: none): 300 nM; apparent KD of K4 kissing-loop reporter [1, 2]: 330 nM; apparent KD of K4 kissing-loop reporter [1, 3]: 270 nM
3 | GGGAGUAGUGCGGCCGCCACUGAGAAAGAAGAAGAAUAUAGUGAUGUUAUAUAGGAAGGGAAGAACAGGACCGGGCAUUAGAUUU [SSTRyptB.Y] | – | – | – | – | apparent KD of K4 kissing-loop reporter ([1]; input ligand: FMN 200 uM): 240 nM; apparent KD of K4 kissing-loop reporter ([1]; input ligand: arginine 13.2 mM): 306 nM; apparent KD of K4 kissing-loop reporter ([1]; input ligand: none): 380 nM; apparent KD of K4 kissing-loop reporter [1, 2]: 311 nM; apparent KD of K4 kissing-loop reporter [1, 3]: 222 nM
4 | GGUUGCGCAGGAUAUACAUGAGGAUCACCCAUGUGAGAGAAAUAAGUGAGGAAGAAAAGUAGAAGGGCGUGACA [Mat - Exclusion 3 - Mod of Salish D75] (puzzle: Exclusion 3) | 45.3 | – | – | – | apparent KD of MS2 coat protein (MS2 coat protein; [4]): 175 nM; apparent KD of MS2 coat protein (MS2 coat protein; [6]): 58.9 nM
5 | GGAUCGAGUGUGAGGAUAUGCAGGUCCUUGGAUCUGCAGAAGGCACAUGAGGAUCACCCAUGUGGAGACGGUCC [Mat - Exclusion 4 - JL Mod - D75] (puzzle: Brourd's mod of Exclusion 4) | 64.2 | – | – | – | apparent KD of MS2 coat protein (MS2 coat protein; [4]): 406 nM; apparent KD of MS2 coat protein (MS2 coat protein; [6]): 110 nM
6 | UACAUGAGGAUCACCCAUGUUUUGUCGUGUAUGGUAUUUAUCUAGGAUAUCAAUUUGUUUAUUUAUGAGAAGGAGAAUAUUAAU [JMF's solution 16] (Eterna round: R96, puzzle: Exclusion NG 3) | – | 39.2 | 29.8 | 41 | –
7 | UUUUACAUAGGAUAUAGUUUCUUUUACAUGAGGAUCACCCAUGUUUCUCUUCUCUCUCUUCUAGAAGGAUGUUUCU [JR_E5_Sub013] (puzzle: Exclusion 5) | 33.5 | – | – | – | –
8 | CUUUUGUGAGGAUAUGGUAACGUUUACAUGAGGAUCACCCAUGUUUCAUGGGACUUGAGACUAGAAGGCACUAACG [JR_Ex5_Sub027] (Eterna round: R97, puzzle: Exclusion 5) | – | 516 | – | 823 | –
9 | AGAUGUAGAUGCCGAUCCUACAUGAGGAUCACCCAUGUAGCUAGACGUGCGGGCGGCGCUCGUCGGACUACCAGUAG [salish99_TOv1_r3_097] (puzzle: Sensor v3, turn-off variant 1) | 82.4 | – | – | – | apparent KD of MS2 coat protein (MS2 coat protein; [4]): 78.8 nM; apparent KD of MS2 coat protein (MS2 coat protein; [6]): 124 nM
10 | AAGGACCGUGUAGGAUAUGCACUGAAUAGGUCAGGAGGGUUCUUACACAUGAGGAUCACCCAUGUGUAGAAGGACGGAAGGUCA [Eternabot solution 25] (Eterna round: R96, puzzle: Exclusion NG 2) | – | 12.7 | 11.4 | 15.2 | –
11 | CCUCUACAUGAGGAUCACCCAUGUGAGGAUAUGUUGACGAGCCAGAAAUGGCUGGUCAACAGAAGGCAUAUGUA [Exclusion 1 (Mod 2.1 solution 16 by Eternabot)] (Eterna round: R97, puzzle: Exclusion 1) | – | 43.7 | – | 23.7 | –
12 | AUAUAAAUAUAGGAUAUCGAAUUUAUUAAUUAUCGAGAAGGAUAAACAUGAGGAUCACCCAUGUGGUAUCAUGG [Mat - Exclusion 6 - JL Mod - D40] (puzzle: Exclusion 6) | 270 | – | – | – | –
13 | ACAUGAGGAUCACCCAUGUAAUCAUGAUGGCUGAUGUAGAGUCAGGAUAUGUGUGGCUUUCUAUCACAGAAGGGACAAGACUGG [Deportation 36 - Jieux - Exclusion NG 3] (Eterna round: R96, puzzle: Exclusion NG 3) | – | 42.9 | 26.2 | 34.9 | –
14 | CUAAUACAUGUGAGGAUAUACGACUUGGAGACGGCGUAGAAGGUACAUGAGGAUCACCCAUGUGCGGGCUCCUU [Eternabot (L1) Solution 49] (Eterna round: R97, puzzle: Brourd's mod of Exclusion 4) | – | 55.9 | – | 27.5 | –
15 | CUGAGCAGACGGAGAUCCAACAUGAGGAUCACCCAUGUCUCAAAAGCUCUUUGCUCGUCUUAUCCUCCUCUGUUCUC [Leriedor] (puzzle: Sensor v3, turn-off variant 1) | 333 | – | – | – | apparent KD of MS2 coat protein (MS2 coat protein; [4]): 31.5 nM; apparent KD of MS2 coat protein (MS2 coat protein; [6]): 30.1 nM
16 | CUUCUCAAAGGAUAUCACGGUAAUAACAUGAGGAUCACCCAUGUGCAAUUCGUGUCCCUGUGAGAAGGUUGAGAAG [Remaor] (puzzle: Exclusion 5) | 10.5 | – | – | – | –
17 | AGACAUGAGGAUCACCCAUGUAGUGGUCCUGGUACGCGAACGUAGGAUAUAUACUGGAUUCCAAUGUAGAAGGACGACACCGCG [Tetege] (Eterna round: R96, puzzle: Exclusion NG 3) | – | 90 | 112 | 149 | –
18 | AAAAAACAAGGAUAUACUAAAAAAAAAUGUGUUAAUUUUUCACAUGAGGAUCACCCAUGUAGAAGGUGUUAAAA [JR_Exclusion2_Sub006] (puzzle: Exclusion 2) | 79 | – | – | – | apparent KD of MS2 coat protein (MS2 coat protein; [4]): 54.7 nM; apparent KD of MS2 coat protein (MS2 coat protein; [6]): 93.6 nM
19 | UGUGGACAUGAGGAUCACCCAUGUCAGCCGUGUCCACCGAGAGAGGAUAUUGGUCAACCAGGGACUAAGAAGGCUCAGAGCUGG [Eternabot solution 47] (Eterna round: R96, puzzle: Exclusion NG 3) | – | 30.3 | 37.4 | 46.4 | –
20 | UUCUUUACACGAGGAUAUCAUACAUGAGGAUCACCCAUGUUGCUUUGUCUGUUUUUAUGUAUUAUUGAGAAGGCGUUUUUCUUU [JR_ExcNG2_Sub076] (Eterna round: R96, puzzle: Exclusion NG 2) | – | 21.9 | 19.7 | 23.7 | –
21 | AGCCACAGAGGAUAUACAUACAUCCAGUAGCGUAUAUCGCUACAUGAGGAUCACCCAUGUAGAAGGCUGUGGCA [Omei Ex2 BD B23] (Eterna round: R97, puzzle: Exclusion 2) | – | 86.7 | – | 18.4 | –
22 | UGUUGUUACGCAGGAUAUGCAUGAGGAUCACCCAUGCAAUUAGAGUUAACAUGAGGAUCACCCAUGUAGAAGGGCGGGUUAACA [pwkr exNG2 2xF5 1xFMN.4] (Eterna round: R96, puzzle: Exclusion NG 2) | – | 82.2 | 45.8 | 57.6 | –
23 | GAGAAGUGAGGAUAUGCGAUAAGGAUGAAAGGAAGGAAUGAGUAGAAGGCACAUGAGGAUCACCCAUGUAGAGU [JR_Exclu4_Sub080] (puzzle: Exclusion 4) | 21.3 | – | – | – | apparent KD of MS2 coat protein (MS2 coat protein; [4]): 25.3 nM; apparent KD of MS2 coat protein (MS2 coat protein; [6]): 21 nM
